Laboratory results as given in the supplement of paper PMC10201428.
± gives the standard deviation of the averaged measurements.

B1: library; a variant is named by its letters at N, in order (parent)
chain: ACATTTGTTGATACAACCATAAAATGATAATTACACCCATAAATTGATAATTATCACACCCANNNNNNNNNNNNNNCTCTGATCATAGTCAGACCAACATTGCTACGACCCGTATTCGCACCGACAC

Tests used:
[1] = variants of: B1; experiment: relative integration efficiency (T-RL orientation) vs wild-type transposon end (log2 (normalized fold change)); transposon end mutated: right end (5 bp flank + 75 bp right end); higher = more efficient transposition; settings: with VchCAST RNA-guided transposition machinery (E. coli BL21(DE3) host, lacZ target)
Experimental: (§1)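 Pooled, barcoded VchCAST (Tn6677) mini-transposon donor libraries; each variable transposon-end sequence sits in a fixed pDonor mini-transposon context (10-bp barcode and cargo not included). Left- or right-end libraries were co-transformed with pEffector (TniQ-Cascade, TnsABC, lacZ crRNA, T7, 0.1 mM IPTG) into E. coli BL21(DE3) and grown 18 h at 37 C. T-LR and T-RL junction amplicons were sequenced; output/input barcode fold change was normalised to the mean of four wild-type barcodes and log2-transformed. Two biological replicates; zero-count/undetected variants carry floor values (-10 / -15), censored here. Barcode uncoupling by PCR recombination adds noise.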

[2] = variants of: B1; experiment: relative integration efficiency (T-LR orientation) vs wild-type transposon end (log2 (normalized fold change)); transposon end mutated: right end (5 bp flank + 75 bp right end); higher = more efficient transposition; settings: with VchCAST RNA-guided transposition machinery (E. coli BL21(DE3) host, lacZ target)
Experimental: as §1

Variant	relative integration efficiency (log2) [1]	relative integration efficiency (log2) [2]
TAAATTGGTATTGC	0.0075 ± 0.082	0.963 ± 0.065
TAAATTGATATTGC T45G	-0.479 ± 0.082	-0.522 ± 0.1
TAAATTGATATTGC T45A	-0.307 ± 0.056	-0.351 ± 0.41
TAAATTGATATTGC T45C	-0.0459 ± 0.091	-0.285 ± 0.21
TAAATTGATATTGC C14G	-0.477 ± 0.036	-1.2 ± 0.21
TAAATTGATATTGC C14A	-0.119 ± 0.027	-0.254 ± 0.16
TAAATTGATATTGC C14T	-0.00853 ± 0.13	0.0199 ± 0.32
ATTTAACTATAACG A22T	-0.696 ± 0.12	2.5 ± 0.18
ATTTAACTATAACG A22G	-1.42 ± 0.27	1.36 ± 0.45
ATTTAACTATAACG A22C	-1.71 ± 0.34	1.21 ± 0.057
TAAATTGATATTGC C17T	7.24e-05 ± 0.068	-0.744 ± 0.39
TAAATTGATATTGC C17A	-0.124 ± 0.042	-0.331 ± 0.098
TAAATTGATATTGC C17G	-0.0518 ± 0.013	-0.402 ± 0.0041
TAATATGATATTGC	-0.0671 ± 0.049	0.438 ± 0.31
TAAATTGATATTGC C34T	-1.32 ± 0.14	-0.474 ± 0.43
TAAATTGATATTGC C34G	-0.73 ± 0.11	-0.479 ± 0.0065
TAAATTGATATTGC C34A	-0.0537 ± 0.0045	0.162 ± 0.16
ATTTAACTATAACG A15T	-1.1 ± 0.15	1.8 ± 0.077
ATTTAACTATAACG A15C	-0.749 ± 0.29	2.73 ± 0.074
TACCTTGATATTGC	1.35 ± 0.074	3.9016 ± 0.0014

Variant	relative integration efficiency (log2) [1]	relative integration efficiency (log2) [2]
TAAATTGATATTGC C79T	0.00455 ± 0.031	-0.191 ± 0.27
TAAATTGATATTGC C79A	-0.158 ± 0.087	-0.334 ± 0.18
TAAATTGATATTGC C79G	-0.0645 ± 0.0099	-0.196 ± 0.19
TAAATTGATATTGT	0.127 ± 0.093	0.155 ± 0.13
TAAATTGATATTGG	0.00187 ± 0.0011	-0.155 ± 0.042
TAAATTGATATTGC C2G	0.0801 ± 0.019	0.363 ± 0.28
TAAATTGATATTGC C2A	0.0243 ± 0.04	0.336 ± 0.22
TAAATTGATATTGC C2T	-0.0194 ± 0.017	0.0698 ± 0.22
TAAATTGATATTGC T4G	-0.1742 ± 0.00091	0.405 ± 0.34
TAAATTGATATTGC T4A	-0.153 ± 0.014	-0.113 ± 0.32
TAAATTGATATTGC T4C	-0.0535 ± 0.0038	-0.0603 ± 0.29
TAAATTGATATTGC T51C	0.0252 ± 0.18	0.0609 ± 0.14
TAAATTGATATTGC T51A	-0.455 ± 0.07	-0.206 ± 0.1
TAAATTGATATTGC T51G	-0.507 ± 0.097	-0.118 ± 0.2
TAAATTGCTATTGC	-0.207 ± 0.014	0.841 ± 0.12
TAATAACATATTGC	-0.969 ± 0.16	2.203 ± 0.0027
ATTATTGATATTGC A62T	-0.325 ± 0.075	1.957 ± 0.011
TAAATTGATATTGC A47G	-0.0921 ± 0.17	-0.453 ± 0.42
TAAATTGATATTGC A47T	-0.574 ± 0.2	-0.552 ± 0.16
TAAATTGATATTGC A47C	-0.409 ± 0.05	-0.216 ± 0.54

Variant	relative integration efficiency (log2) [1]	relative integration efficiency (log2) [2]
TAAATTGATTAACC	-0.157 ± 0.13	1.35 ± 0.077
GCAATTGATATTGC	-0.508 ± 0.047	2.25 ± 0.12
ATTTAACTATAACG A24G	-0.674 ± 0.13	2.25 ± 0.086
ATTTAACTATAACG A24C	-0.878 ± 0.18	2.28 ± 0.015
ATTTAACTATAACG A24T	-0.752 ± 0.19	2.39 ± 0.024
TAAATTGATATTGC G10C	-0.405 ± 0.069	-1.81 ± 0.24
TAAATTGATATTGC G10T	-0.7118 ± 0.001	-1.93 ± 0.22
TAAATTGATATTGC G10A	0.115 ± 0.017	-0.464 ± 0.17
TAAATTGATATTGC T25A	-0.524 ± 0.069	-0.8 ± 0.34
TAAATTGATATTGC T25G	-0.25 ± 0.041	-0.0581 ± 0.34
TAAATTGATATTGC T25C	-0.146 ± 0.0084	-0.488 ± 0.0056
TACCTTGAAATTGC C59A	-1.62 ± 0.24	1.94 ± 0.21
TAAATTGATCGGTC	-0.277 ± 0.017	1.42 ± 0.094
ATTTAACTATAACG A11T	-0.284 ± 0.19	2.19 ± 0.049
ATTTAACTATAACG A11G	-0.569 ± 0.088	1.83 ± 0.095
ATTTAACTATAACG A11C	-0.753 ± 0.07	1.51 ± 0.15
TAAATTGCGCGTGC	-0.618 ± 0.12	1.7 ± 0.1
TAAATTGATATTGC A33T	-0.264 ± 0.0049	-0.243 ± 0.38
